Assay results published in patent US9187525B2, “Methods of treating ophthalmic diseases using NPR-B agonists” (Shire Orphan Therapies GmbH, dated 2015).
Numbered stars: 1 amine (or outer) side, 2 acyl side, 3 side chain; on linkers, the order of the positions; unused ones are H or OH. Square brackets hold non-standard residues; d marks the D form. Ends that are not written are not given here. * marks the point of attachment. AFL = (S)-2-((S)-3-amino-2-oxopyrrolidin-1-yl)-3-phenylpropanoic acid, O=C1[C@@H](N[*:1])CCN1[C@@H](Cc1ccccc1)C(=O)[*:2]; Tap(Ae) = (2S,4R)-4-(2-aminoethylamino)pyrrolidine-2-carboxylic acid, O=C([C@@H]1C[C@@H](NCCN[*:3])CN1[*:1])[*:2]; Pca = (2S,3R)-3-aminopyrrolidine-2-carboxylic acid, O=C([C@@H]1[C@H](N[*:3])CCN1[*:1])[*:2]; 3218 = (S)-2-cyclopentylhexanoic acid, CCCC[C@H](C(=O)*)C1CCCC1; Pro(trans-4-NH2) = O=C([C@@H]1C[C@@H](N[*:3])CN1[*:1])[*:2]; Sni = (S)-nipecotic acid, O=C([C@H]1CCCN([*:1])C1)[*:2]; 6013 = (2-butoxy-ethoxy)-acetic acid, CCCCOCCOCC(=O)*; Gly(2-thienyl) = N[C@H](C(=O)O)c1cccs1; Propanoyl(3-cHex) = O=C(CCC1CCCCC1)*; Hyp = O=C(O)[C@@H]1C[C@@H](O)CN1; hPhe = N[C@@H](CCc1ccccc1)C(=O)O; NMeL = CN[C@@H](CC(C)C)C(=O)O; Decanoyl = CCCCCCCCCC(=O)*; BB394 = not defined here; BB785 = not defined here; Api = NC1(C(=O)O)CCNCC1; Che = not defined here; leu = not defined here; NP = not defined here; Occ = octanoic acid

T1: natriuretic peptide receptor-B (human)
T1 chain: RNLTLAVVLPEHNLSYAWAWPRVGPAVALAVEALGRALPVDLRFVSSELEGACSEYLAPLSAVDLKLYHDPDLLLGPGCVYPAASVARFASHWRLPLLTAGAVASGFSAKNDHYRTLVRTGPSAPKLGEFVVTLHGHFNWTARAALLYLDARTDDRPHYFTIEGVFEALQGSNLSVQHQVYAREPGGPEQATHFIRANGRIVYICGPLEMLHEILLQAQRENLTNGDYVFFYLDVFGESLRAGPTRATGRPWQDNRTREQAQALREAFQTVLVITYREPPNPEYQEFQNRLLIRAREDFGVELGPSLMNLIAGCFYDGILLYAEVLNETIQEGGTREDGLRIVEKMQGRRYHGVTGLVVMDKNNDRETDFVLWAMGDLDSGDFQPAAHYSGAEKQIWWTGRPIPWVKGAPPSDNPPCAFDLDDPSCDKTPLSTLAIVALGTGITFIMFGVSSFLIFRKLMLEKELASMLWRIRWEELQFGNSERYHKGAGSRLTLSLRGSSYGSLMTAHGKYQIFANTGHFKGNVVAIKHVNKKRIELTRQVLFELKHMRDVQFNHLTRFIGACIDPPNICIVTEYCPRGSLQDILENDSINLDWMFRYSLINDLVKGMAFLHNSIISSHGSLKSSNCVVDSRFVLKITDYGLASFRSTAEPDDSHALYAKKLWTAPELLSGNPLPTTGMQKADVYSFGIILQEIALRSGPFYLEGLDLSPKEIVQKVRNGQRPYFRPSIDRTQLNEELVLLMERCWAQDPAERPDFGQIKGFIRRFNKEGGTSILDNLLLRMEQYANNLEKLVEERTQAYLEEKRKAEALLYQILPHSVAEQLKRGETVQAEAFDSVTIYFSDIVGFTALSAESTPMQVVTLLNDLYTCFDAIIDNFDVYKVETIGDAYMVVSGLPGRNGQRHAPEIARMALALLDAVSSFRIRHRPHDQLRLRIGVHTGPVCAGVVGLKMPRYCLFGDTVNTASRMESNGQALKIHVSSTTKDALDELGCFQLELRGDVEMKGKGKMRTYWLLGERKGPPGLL

B1: JAL-1669 (peptide)
peptide: XXXFLLXXDRI
HELM: PEPTIDE1{[O=C(CCc1ccccc1)[*:2]].[bAla].[O=C([C@H]1CCCN([*:1])C1)[*:2]].F.[dL].L.[Hyp].[meL].D.R.I.[am]}$$$$V2.0
SMILES: CC[C@H](C)[C@H](NC(=O)[C@H](CCCNC(=N)N)NC(=O)[C@H](CC(=O)O)NC(=O)[C@H](CC(C)C)N(C)C(=O)[C@@H]1C[C@@H](O)CN1C(=O)[C@H](CC(C)C)NC(=O)[C@@H](CC(C)C)NC(=O)[C@H](Cc1ccccc1)NC(=O)[C@H]1CCCN(C(=O)CCNC(=O)CCc2ccccc2)C1)C(N)=O
B2: JAL-1701 (peptide)
peptide: [Occ][Sni][hPhe]LL[Hyp][NMeL]DRI-NH2
modifications: not fully specified (residue 4); printed as Occ-Sni-Hfe-leu-Leu-Hyp-Nml-Asp-Arg-Ile-
B3: JAL-1682 (peptide)
peptide: [Occ][Sni]FLL[Pro(trans-4-NH2)][NMeL]DR[Che]
modifications: not fully specified (residue 4); printed as Occ-Sni-Phe-leu-Leu-Tap-Nml-Asp-Arg-Che; reading uncertain
B4: JAL-1683 (peptide)
peptide: [Occ][Sni]FLL[Tap(Ae)][NMeL]VR[Che]
modifications: not fully specified (residue 4); printed as Occ-Sni-Phe-leu-Leu-Tap(Ae)-Nml-Val-Arg-Che; reading uncertain
B5: JAL-0713 (peptide)
peptide: XXFGLKLDRI
HELM: PEPTIDE1{[CCCCCC(=O)[*:2]].[O=C(c1nc(N[*:1])cs1)[*:2]].F.G.L.K.L.D.R.I.[am]}$$$$V2.0
SMILES: CCCCCC(=O)Nc1csc(C(=O)N[C@@H](Cc2ccccc2)C(=O)NCC(=O)N[C@@H](CC(C)C)C(=O)N[C@@H](CCCCN)C(=O)N[C@@H](CC(C)C)C(=O)N[C@@H](CC(=O)O)C(=O)N[C@@H](CCCNC(=N)N)C(=O)N[C@H](C(N)=O)[C@@H](C)CC)n1
B6: JAL-1687 (peptide)
peptide: [Occ][Sni]FLL[Hyp][NMeL]D[Apc(Gly)][Che]
modifications: not fully specified (residue 4); printed as Occ-Sni-Phe-leu-Leu-Hyp-Nml-Asp-Apc(Gly)-Che; reading uncertain
B7: JAL-1681 (peptide)
peptide: [Occ][Sni]FLL[Tap(Ae)][NMeL]DR[Che]
modifications: not fully specified (residue 4); printed as Occ-Sni-Phe-leu-Leu-Tap(Ae)-Nml-Asp-Arg-Che; reading uncertain
B8: JAL-1668 (peptide)
peptide: XGXFLLXXDRI
HELM: PEPTIDE1{[O=C(CCc1ccccc1)[*:2]].G.[O=C([C@H]1CCCN([*:1])C1)[*:2]].F.[dL].L.[Hyp].[meL].D.R.I.[am]}$$$$V2.0
SMILES: CC[C@H](C)[C@H](NC(=O)[C@H](CCCNC(=N)N)NC(=O)[C@H](CC(=O)O)NC(=O)[C@H](CC(C)C)N(C)C(=O)[C@@H]1C[C@@H](O)CN1C(=O)[C@H](CC(C)C)NC(=O)[C@@H](CC(C)C)NC(=O)[C@H](Cc1ccccc1)NC(=O)[C@H]1CCCN(C(=O)CNC(=O)CCc2ccccc2)C1)C(N)=O
B9: JAL-1694 (peptide)
peptide: [Occ][Sni]FLL[Hyp][NMeL]D[BB394][Che]
modifications: not fully specified (residue 4); printed as Occ-Sni-Phe-leu-Leu-Hyp-Nml-Asp-(BB394)-Che; reading uncertain
B10: JAL-1685 (peptide)
peptide: [Occ][Sni]FLL[Hyp][NMeL]D[Apc(Gua)][Che]
modifications: not fully specified (residue 4); printed as Occ-Sni-Phe-leu-Leu-Hyp-Nml-Asp-Apc(Gua)-Che; reading uncertain
B11: JAL-1664 (peptide)
peptide: [3218][Sni]F[leu]L[Hyp][NMeL]DRI-NH2
modifications: reading uncertain; also: printed as 3218-Sni-Phe-leu-Leu-Hyp-Nml-Asp-Arg-Ile-NH2
B12: JAL-1665 (peptide)
peptide: [6013][Sni]F[leu]L[Hyp][NMeL]DRI-NH2
modifications: reading uncertain; also: printed as 6013-Sni-Phe-leu-Leu-Hyp-Nml-Asp-Arg-Ile-NH2
B13: JAL-1666 (peptide)
peptide: [Decanoyl][Sni]F[leu]L[Hyp][NMeL]DRI-NH2
modifications: reading uncertain; also: printed as 5587-Sni-Phe-leu-Leu-Hyp-Nml-Asp-Arg-Ile-NH2
B14: JAL-1697 (peptide)
peptide: [Occ][Sni]FLL[Hyp][NMeL]D[BB785][Che]
modifications: not fully specified (residue 4); printed as Occ-Sni-Phe-leu-Leu-Hyp-Nml-Asp-(BB785)-Che; reading uncertain

Molecular target: T1, natriuretic peptide receptor-B
Assay: cell-based or functional assay

EC50 group, cGMP in GTM-3 cells	Binder
≤ 15 µM	B1
≤ 15 µM	B2
≤ 1 µM	B3
≤ 15 µM	B4
≤ 15 µM	B5
≤ 5 µM	B6
≤ 5 µM	[Occ][Sni]F[dL]L[Pro(trans-4-NH2)][NMeL][Gly(2-thienyl)]P[Che] (reading uncertain; also: printed as Occ-Sni-Phe-leu-Leu-Tap-Nml-(BB726)-Pro-Che) [JAL-1676]
≤ 1 µM	B7
≤ 15 µM	B8
≤ 1 µM	[Occ][Sni]F[dL]L[Hyp][NMeL]DR[Che] (reading uncertain; also: printed as Occ-Sni-Phe-leu-Leu-Hyp-Nml-Asp-Arg-Che) [JAL-1680]
≤ 15 µM	B9
≤ 15 µM	B10
≤ 15 µM	B11
≤ 1 µM	[Occ][Sni]F[dL]L[Hyp][NMeL]D[Pca][Che] (reading uncertain; also: printed as Occ-Sni-Phe-leu-Leu-Hyp-Nml-Asp-Pca-Che) [JAL-1679]
≤ 15 µM	[Occ][Sni]F[dL]L[Hyp][NMeL][NP][Che] (reading uncertain; also: printed as Occ-Sni-Phe-leu-Leu-Hyp-Nml-NP-Che) [JAL-1673]
≤ 5 µM	B12
≤ 15 µM	{Propanoyl(3-cHex)}-[dA][dA]FGLKLDRI-NH2 [JAL-0703]
≤ 1 µM	[Occ][AFL][dL]L[Hyp][NMeL]DRI-NH2 [JAL-1671]
≤ 15 µM	[Occ][Sni]F[dL]L[Hyp][NMeL]D[Api][Che] (reading uncertain; also: printed as Occ-Sni-Phe-leu-Leu-Hyp-Nml-Asp-Apc-Che) [JAL-1672]
≤ 1 µM	B13
≤ 5 µM	B14
